Experimental data from paper PMC7798916 (National Science Review, 2020).

B1: HB27 (humanized monoclonal antibody, IgG) (antibody, V domains shown)
VH: VKLVESGGGLVKPGGSLRLSCAASGFTFTNYGMSWVRQAPGKRLEWVAEISSGGSYTYYPDTVTGRFTISRDNAKNTLYLQMNSLRAEDTAVYYCARFRYGGGGTVDYWGQGTLVTVSS
VL: IVLTQSPTLSLSPGERATLSCRASESVDNYGISFMNWFQQKPGQAPRLLIYAASNQGSGIPSRFSGSGSGTDFSLTISSLEPEDFAVYFCQQSKEVPRIFGQGTKVEIL
notes: also called HB27 IgG; source: CHO cell line
B2: HB27 Fab fragment (Fab, V domains shown)
VH: B1 VH
VL: B1 VL

Legend:
Conditions in all cases: both partners purified
[1] = target: T1, SARS-CoV-2 RBD (recombinant receptor binding domain of the S glycoprotein) (SARS-CoV-2, UniProt P0DTC2); test: BLI
[2] = target: T1, SARS-CoV-2 RBD (recombinant receptor …); test: cell-based immunofluorescent blocking assay
[3] = target: T1, SARS-CoV-2 RBD (recombinant receptor …); test: ELISA

Row | Binder | Kd [1] | EC50 [2] | EC50 [3]
1 | B1 | 0.07 nM | 5 to 50 nM | 0.5 nM
2 | B2 | 0.27 nM |  | 
